Data on 97 variants can be found in the supplement of paper PMC10567573.

To fix the notation:
B1: NP_002788.1 (parent)
chain: DGWIRVSSDNVADLHEKYSGSTP
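Note: lentivirally expressed fusion library, cells FACS-sorted into six equal-sized GFP/DsRed ratio bins, PSI computed from sequencing read fractions per bin weighted by bin number.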

This data set covers variants of B1. Briefly: protein stability index of a GFP-peptide fusion (GPS, HEK-293T) (PSI 1-6); higher = more stable. The note with it: c terminus: native.
With DGNIRVSSDNVADLHEKYSGSTP, the protein stability index turned out to be 5.39.

As for DGRIRVSSDNVADLHEKYSGSTP, the protein stability index was found to be 5.15.

Regarding DGKIRVSSDNVADLHEKYSGSTP, the protein stability index was 5.21.

On to DGHIRVSSDNVADLHEKYSGSTP, for which the protein stability index is 5.35.

Consider DGLIRVSSDNVADLHEKYSGSTP, for which the protein stability index is 5.26.

For the variant DGFIRVSSDNVADLHEKYSGSTP, the protein stability index stood at 4.08.

As to DGQIRVSSDNVADLHEKYSGSTP, the protein stability index is 5.42.

As for DGIIRVSSDNVADLHEKYSGSTP, the protein stability index was 5.33.

As to DGAIRVSSDNVADLHEKYSGSTP, the protein stability index was determined as 5.34.

Turning to DGMIRVSSDNVADLHEKYSGSTP, the protein stability index worked out at 5.35.

For the variant DGCIRVSSDNVADLHEKYSGSTP, the protein stability index is 5.49.

For the variant DGGIRVSSDNVADLHEKYSGSTP, the protein stability index was determined as 5.28.

As to DGDIRVSSDNVADLHEKYSGSTP, the protein stability index is 5.23.

For the variant DGEIRVSSDNVADLHEKYSGSTP, the protein stability index is 5.43.

On to DGVIRVSSDNVADLHEKYSGSTP, for which the protein stability index came to 5.65.

Consider DGTIRVSSDNVADLHEKYSGSTP, for which the protein stability index is 5.5.

DGYIRVSSDNVADLHEKYSGSTP: the protein stability index amounted to 5.02.

With DGSIRVSSDNVADLHEKYSGSTP, the protein stability index came out at 5.54.

In the case of DGPIRVSSDNVADLHEKYSGSTP, the protein stability index stood at 5.26.

For the variant DGWIRVSSLNVADLHEKYSGSTP, the protein stability index worked out at 2.42.

Regarding DGWIRVSSTNVADLHEKYSGSTP, the protein stability index amounted to 2.43.

Turning to DGWIRVSSMNVADLHEKYSGSTP, the protein stability index was 2.59.

Regarding DGWIRVSSANVADLHEKYSGSTP, the protein stability index came to 2.35.

Consider DGWIRVSSINVADLHEKYSGSTP, for which the protein stability index amounted to 2.27.

On to DGWIRVSSCNVADLHEKYSGSTP, for which the protein stability index is 2.4.

Regarding DGWIRVSSENVADLHEKYSGSTP, the protein stability index is 2.34.

Turning to DGWIRVSSYNVADLHEKYSGSTP, the protein stability index is 2.24.

Consider DGWIRVSSPNVADLHEKYSGSTP, for which the protein stability index was 2.25.

In the case of DGWIRVSSFNVADLHEKYSGSTP, the protein stability index was found to be 2.27.

Regarding DGWIRVSSQNVADLHEKYSGSTP, the protein stability index worked out at 2.41.

On to DGWIRVSSGNVADLHEKYSGSTP, for which the protein stability index stood at 2.82.

DGWIRVSSWNVADLHEKYSGSTP: the protein stability index worked out at 2.19.

DGWIRVSSVNVADLHEKYSGSTP: the protein stability index was 2.54.

Consider DGWIRVSSNNVADLHEKYSGSTP, for which the protein stability index was 2.29.

With DGWIRVSSRNVADLHEKYSGSTP, the protein stability index turned out to be 2.3.

In the case of DGWIRVSSHNVADLHEKYSGSTP, the protein stability index is 2.59.

In the case of DGWIRVSSSNVADLHEKYSGSTP, the protein stability index is 2.74.

For the variant DGWIRVSSKNVADLHEKYSGSTP, the protein stability index is 2.36.

YGWIRVSSDNVADLHEKYSGSTP: the protein stability index was determined as 2.07.

For the variant RGWIRVSSDNVADLHEKYSGSTP, the protein stability index was determined as 2.44.

EGWIRVSSDNVADLHEKYSGSTP: the protein stability index was found to be 2.54.

KGWIRVSSDNVADLHEKYSGSTP: the protein stability index was 2.09.

Turning to VGWIRVSSDNVADLHEKYSGSTP, the protein stability index turned out to be 2.36.

Turning to MGWIRVSSDNVADLHEKYSGSTP, the protein stability index came out at 2.3.

Take FGWIRVSSDNVADLHEKYSGSTP: the protein stability index came out at 2.3.

Take PGWIRVSSDNVADLHEKYSGSTP: the protein stability index was 2.7.

Take IGWIRVSSDNVADLHEKYSGSTP: the protein stability index worked out at 2.92.

Consider HGWIRVSSDNVADLHEKYSGSTP, for which the protein stability index is 2.51.

Consider NGWIRVSSDNVADLHEKYSGSTP, for which the protein stability index was determined as 2.33.

With AGWIRVSSDNVADLHEKYSGSTP, the protein stability index turned out to be 2.37.

In the case of WGWIRVSSDNVADLHEKYSGSTP, the protein stability index is 2.8.

On to QGWIRVSSDNVADLHEKYSGSTP, for which the protein stability index was found to be 2.36.

Take SGWIRVSSDNVADLHEKYSGSTP: the protein stability index was 2.53.

For the variant TGWIRVSSDNVADLHEKYSGSTP, the protein stability index was found to be 2.48.

Consider CGWIRVSSDNVADLHEKYSGSTP, for which the protein stability index is 2.23.

On to LGWIRVSSDNVADLHEKYSGSTP, for which the protein stability index is 2.2.

Regarding DGWIAVSSDNVADLHEKYSGSTP, the protein stability index was found to be 2.31.

In the case of DGWIKVSSDNVADLHEKYSGSTP, the protein stability index worked out at 2.49.

DGWIWVSSDNVADLHEKYSGSTP: the protein stability index is 2.41.

For DGWIPVSSDNVADLHEKYSGSTP, the protein stability index came out at 4.15.

In the case of DGWITVSSDNVADLHEKYSGSTP, the protein stability index was found to be 2.54.

With DGWIGVSSDNVADLHEKYSGSTP, the protein stability index was found to be 3.15.

DGWINVSSDNVADLHEKYSGSTP: the protein stability index was 2.63.

Take DGWILVSSDNVADLHEKYSGSTP: the protein stability index was determined as 2.5.

With DGWIYVSSDNVADLHEKYSGSTP, the protein stability index was 2.76.

Take DGWICVSSDNVADLHEKYSGSTP: the protein stability index was found to be 2.83.

DGWIFVSSDNVADLHEKYSGSTP: the protein stability index came to 2.52.

Consider DGWIQVSSDNVADLHEKYSGSTP, for which the protein stability index stood at 2.52.

For the variant DGWIDVSSDNVADLHEKYSGSTP, the protein stability index came to 3.01.

On to DGWIIVSSDNVADLHEKYSGSTP, for which the protein stability index was found to be 2.67.

Turning to DGWIHVSSDNVADLHEKYSGSTP, the protein stability index came to 2.62.

Turning to DGWIMVSSDNVADLHEKYSGSTP, the protein stability index is 2.64.

On to DGWIEVSSDNVADLHEKYSGSTP, for which the protein stability index was 2.96.

DGWISVSSDNVADLHEKYSGSTP: the protein stability index amounted to 2.51.

On to DGWIVVSSDNVADLHEKYSGSTP, for which the protein stability index came to 2.42.

On to DGWIRVHSDNVADLHEKYSGSTP, for which the protein stability index worked out at 3.09.

For DGWIRVMSDNVADLHEKYSGSTP, the protein stability index was 2.41.

For DGWIRVKSDNVADLHEKYSGSTP, the protein stability index was determined as 4.58.

Take DGWIRVISDNVADLHEKYSGSTP: the protein stability index turned out to be 2.25.

Regarding DGWIRVVSDNVADLHEKYSGSTP, the protein stability index is 2.06.

Consider DGWIRVYSDNVADLHEKYSGSTP, for which the protein stability index was 2.39.

In the case of DGWIRVGSDNVADLHEKYSGSTP, the protein stability index was determined as 3.63.

DGWIRVDSDNVADLHEKYSGSTP: the protein stability index came to 4.55.

As for DGWIRVNSDNVADLHEKYSGSTP, the protein stability index worked out at 4.02.

For DGWIRVQSDNVADLHEKYSGSTP, the protein stability index came out at 3.86.

For DGWIRVPSDNVADLHEKYSGSTP, the protein stability index was determined as 4.54.

DGWIRVRSDNVADLHEKYSGSTP: the protein stability index amounted to 4.19.

Regarding DGWIRVCSDNVADLHEKYSGSTP, the protein stability index came out at 2.07.

In the case of DGWIRVESDNVADLHEKYSGSTP, the protein stability index was 3.83.

As for DGWIRVTSDNVADLHEKYSGSTP, the protein stability index was determined as 2.24.

Consider DGWIRVLSDNVADLHEKYSGSTP, for which the protein stability index turned out to be 2.26.

DGWIRVFSDNVADLHEKYSGSTP: the protein stability index came out at 2.45.

Turning to DGWIRVASDNVADLHEKYSGSTP, the protein stability index is 2.32.

Regarding DGWIRVWSDNVADLHEKYSGSTP, the protein stability index is 2.64.

With DGWIRVSSDCVADLHEKYSGSTP, the protein stability index is 2.21.

Turning to DGWIRVSSDEVADLHEKYSGSTP, the protein stability index is 2.53.

As to DGWIRVSSDWVADLHEKYSGSTP, the protein stability index turned out to be 2.42.
